This is an account of results in the RNAGym collection of RNA variant scans (doi:10.7554/elife.80360).

B1: Hairpin Ribozyme (parent)
chain: GUCCUCUUUCACGUGCGCGUGAAAGAGAGAAGUGAACCAGAGAAACACACGUUGUGGUAUAUUACCUGGUA

In the data set the parent is B1. Briefly: self-cleavage, relative activity (ratio to wild type); higher = more cleavage; co-transcriptional.
For GUCCACUUUCACGUGCGCGUGAAAGAGAGAAGUGAACCAGAGAAACACAUGUUGUGGUAUAUUACCUGGUA [U5A C50U], the self-cleavage turned out to be 0.291.
For the variant GACCCCUUUCACGUGCGCGUGAAAGAGAGAAGUGAACCAGAGAAACACACGUUGUGGUAUAUUACCUGGUA [U2A U5C], the self-cleavage is 0.137.
The same measure for GUCCUCUUUCAAGUGCGCGUGAAAGAGAGAAGUGAAACAGAGAAACACACGUUGUGGUAUAUUACCUGGUA [C12A C37A]: 0.27; for GUCCUCUUUCACGUGCGCGUGAAAGAGAGAAGUGAACCAGAGAAACACAUGUUGUGGUAUAUUACCUGGCA [C50U U70C]: 0.34.
The same measure for GUCCUCUUUCACGUGCGCGUGAAAGAGAGAAGUGAACCAGAGAAACACACGGUGUGGUAUAUUACCUGGGA [U52G U70G]: 0.933; for GUCCUCUUUUACGUGCGCGUGAAAGACAGAAGUGAACCAGAGAAACACACGUUGUGGUAUAUUACCUGGUA [C10U G27C]: 0.0988; for GUCCUCUUUCACGUGCGCGUGAAAGAGAGAAGAGAACCAGAGAAACACACGUUGUAGUAUAUUACCUGGUA [U33A G56A]: 0.239.
The same measure for GUCCUCUUUCACGUGCGCGUGAAAGAGAGAAGUGAGCCAGAGAAACACACGUUGUGGUAUUUUACCUGGUA [A36G A61U]: 0.205; for GUCCUCUUUCACAUGCGCGUGAAAGAGAGAAGUGAACCAGAGAAACACACGUUGUGGUAUAUUACCUGGUC [G13A A71C]: 1.36.
As for GUCCUCUUUCACUUGCGCGUGAAAGAGAGAAGUGAACCAGAGAAACACACGUUGUGGUAUAUUACCUGCUA [G13U G69C], the self-cleavage amounted to 0.198.
Take GUCCUCUUUCACGUGCGCGUGAAAGAGAGGGGUGAACCAGAGAAACACACGUUGUGGUAUAUUACCUGGUA [A30G A31G]: the self-cleavage is 0.157.
The same measure for GUCCUCUUUCACGUGCGCGUGAAAGAGAGUAGUGAACCAGAGAAACACACGUUGUGGUUUAUUACCUGGUA [A30U A59U]: 0.0496.
GUCAUCUUUCACGUGCGCGUGAAAGAGAGAAGUGAACCAGAGAAACACACGUUGUGGUAUAUUGCCUGGUA [C4A A64G]: the self-cleavage came to 0.134.
For GUCCUCUUUAACGUGCGCGAGAAAGAGAGAAGUGAACCAGAGAAACACACGUUGUGGUAUAUUACCUGGUA [C10A U20A], the self-cleavage is 0.781.
The same measure for GUCCUCUUUCACGUGCGCGUGAAAGAGACAAGUGAACCAGAGAAACACACGUUGUGGUACAUUACCUGGUA [G29C U60C]: 0.164; for GUCCUCUUUCACGUGCGCGUGAAAGACAGAAGUGAACCAGAGAAACACACGUUGUGGUGUAUUACCUGGUA [G27C A59G]: 0.0478; for GGCCUCUUUCACGUGCGCGUGAAAGAGAGAAGUGUACCAGAGAAACACACGUUGUGGUAUAUUACCUGGUA [U2G A35U]: 0.27.
For GUCCUCUUUCACGUGCGCGUGAAAGAGAGACGUGAACCAGAGAAACACGCGUUGUGGUAUAUUACCUGGUA [A31C A49G], the self-cleavage is 0.0512.
The same measure for GUCCUCUUUCACGUGCGCGUGAAAGAGAGAAGUGAACCAGAGAAACACACGUUGUGGUAUAUUACCGGUUA [U67G G69U]: 0.165; for GUCCUCUUUCAGGUGCGCGUCAAAGAGAGAAGUGAACCAGAGAAACACACGUUGUGGUAUAUUACCUGGUA [C12G G21C]: 0.47.
As to GUCCUCUUGCACGUGCGUGUGAAAGAGAGAAGUGAACCAGAGAAACACACGUUGUGGUAUAUUACCUGGUA [U9G C18U], the self-cleavage is 0.793.
The same measure for GUCCUCUUUCACGUGCGCGUGAAAGAGAGAAGUGAACCAGACAAACACACGUUGUGGCAUAUUACCUGGUA [G42C U58C]: 0.185; for GUCCUCUUUCACAUGCGCGUGAAAGAGAGAAGUGAACCAGAGAAACACACGUUGUGGUAUAGUACCUGGUA [G13A U62G]: 0.106; for GUCCACUUUCACGUGCGCGUGAAAGAGAGAAGUGAACCAGAGAAACACACGUUGUGGUACAUUACCUGGUA [U5A U60C]: 0.709.
The same measure for GUCCUCUUUCACGUGCGCGUGAAAACGAGAAGUGAACCAGAGAAACACACGUUGUGGUAUAUUACCUGGUA [G25A A26C]: 0.124.
The same measure for GUCCUCUUUCACGUGCGCGUGAAAGAGAGAAGUGAACCAGAGAAAUACACGUUUUGGUAUAUUACCUGGUA [C46U G54U]: 0.179; for GUCCUCUUUCACGUGCGCGUGAAAGAGAGAAGUGGACCAGAGAAACAAACGUUGUGGUAUAUUACCUGGUA [A35G C48A]: 0.198; for UUCCUCUUUCACGUGCGCGUGAAAGAGAGAAGUGAACCAGAGAUACACACGUUGUGGUAUAUUACCUGGUA [G1U A44U]: 0.128.
